Results from patent US20180155451A1 (published 2018).
Positions count from the first letter of the chain named. Names may count otherwise.

T1: FcγRIIa H (human, UniProt P12318 34-217)
T1 construct: extracellular domain; also called FcgRIIa H; FcγRIIa type H; not shown: His tag attached to the C terminus
T1 sequence (looked up): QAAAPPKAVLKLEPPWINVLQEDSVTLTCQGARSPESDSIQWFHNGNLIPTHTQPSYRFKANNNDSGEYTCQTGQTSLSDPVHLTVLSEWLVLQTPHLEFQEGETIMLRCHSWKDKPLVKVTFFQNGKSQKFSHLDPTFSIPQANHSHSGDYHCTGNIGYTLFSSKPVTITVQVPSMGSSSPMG

T2: FcγRIIb (human, UniProt P31994 43-217)
T2 construct: extracellular domain; also called FcgRIIb; 2b; not shown: His tag attached to the C terminus
T2 sequence (looked up): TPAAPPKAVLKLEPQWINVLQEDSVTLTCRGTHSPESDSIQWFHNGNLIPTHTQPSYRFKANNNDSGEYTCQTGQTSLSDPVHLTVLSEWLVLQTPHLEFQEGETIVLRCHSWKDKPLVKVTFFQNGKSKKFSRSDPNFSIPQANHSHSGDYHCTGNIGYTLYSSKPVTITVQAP

B1: GpH7-TA4/GpH7-B3/GpL16-k0 (antibody, human IgG1, kappa)
heavy 1: QVQLVQSGAEVKKPGASVTVSCKASGYTFTDYEMHWIRQPPGEGLEWIGAIDPKTGDTAYSESFQDRVTLTADKSTSTAYMELSSLTSEDTAVYYCTRFYSYTYWGQGTLVTVSSASTKGPSVFPLAPSSKSTSGGTAALGCLVKDYFPEPVTVSWNSGALTSGVHTFPAVLQSSGLYSLSSVVTVPSSSLGTQTYICNVNHKPSNTKVDKKVEPKSCDKTHTCPPCPAPEYLWGPSVFLFPPKPKDTLMISRTPEVTCVVVDVSHEDPEVKFNWYVDGVEVHNAKTKPREEQYNSTYRVVSVLTVLHQDWLNGKEYKCKVSNKALPAPIEKTISKAKGQPREPQVYTLPPSRKELTKNQVSLTCLVKGFYPSDIAVEWESNGQPENNYKTTPPVLDSDGSFFLYSKLTVDKSRWQQGNVFSCSVMHEALHNRYTQKSLSLSP
heavy 2: not shown
light: DIVMTQSPLSLPVTPGEPASISCQASESLVHSNRNTYLHWYLQKPGQSPQLLIYKVSNRFSGVPDRFSGSGSGTDFTLKISRVEAEDVGVYYCSQNTHVPPTFGQGTKVEIERTVAAPSVFIFPPSDEQLKSGTASVVCLLNNFYPREAKVQWKVDNALQSGNSQESVTEQDSKDSTYSLSSTLTLSKADYEKHKVYACEVTHQGLSSPVTKSFNRGEC
notes: H1 L234Y and G236W
B2: GpH7-TA6/GpH7-B3/GpL16-k0 (antibody, human IgG1, kappa)
heavy 1: B1 heavy 1 with Y232L, S296A
heavy 2: not shown
light: B1 light
notes: H1 G236W and S298A
B3: GpH7-TA5/GpH7-B3-03-20W/GpL16-k0 (antibody, human IgG1, kappa)
heavy 1: B1 heavy 1 with W234G, S296A
heavy 2: not shown
light: B1 light
notes: H1 L234Y and S298A; H2 G236W
B4: GpH7-TA5/GpH7-B3/GpL16-k0 (antibody, human IgG1, kappa)
heavy 1: B1 heavy 1 with W234G, S296A
heavy 2: not shown
light: B1 light
notes: H1 L234Y and S298A
B5: GpH7-TA7/GpH7-B3/GpL16-k0 (antibody, human IgG1, kappa)
heavy 1: B1 heavy 1 with S296A
heavy 2: not shown
light: B1 light
notes: H1 L234Y, G236W and S298A
B6: GpH7-TA6/GpH7-B3-01-15Y/GpL16-k0 (antibody, human IgG1, kappa)
heavy 1: B1 heavy 1 with Y232L, S296A
heavy 2: not shown
light: B1 light
notes: H1 G236W and S298A; H2 L234Y
B7: GpH7-B3 variant P271_02A/GpL16-k0 (Ho Ab) (antibody, human IgG1, kappa)
heavy: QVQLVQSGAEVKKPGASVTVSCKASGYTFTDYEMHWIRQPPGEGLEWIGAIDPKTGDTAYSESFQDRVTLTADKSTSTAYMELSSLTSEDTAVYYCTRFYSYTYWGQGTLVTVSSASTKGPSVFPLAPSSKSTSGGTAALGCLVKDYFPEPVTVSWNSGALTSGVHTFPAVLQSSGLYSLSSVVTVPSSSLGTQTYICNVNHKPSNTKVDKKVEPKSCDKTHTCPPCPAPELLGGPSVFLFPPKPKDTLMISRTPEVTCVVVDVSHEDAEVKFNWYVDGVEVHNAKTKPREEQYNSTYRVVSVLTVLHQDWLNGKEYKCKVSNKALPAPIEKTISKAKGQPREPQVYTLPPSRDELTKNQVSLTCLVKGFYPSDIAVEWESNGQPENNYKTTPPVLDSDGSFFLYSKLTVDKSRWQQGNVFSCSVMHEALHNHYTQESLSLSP
light: B1 light
notes: Ho Ab: alteration in both H chains
B8: GpH7-B3 variant E269_04F/GpL16-k0 (Ho Ab) (antibody, human IgG1, kappa)
heavy: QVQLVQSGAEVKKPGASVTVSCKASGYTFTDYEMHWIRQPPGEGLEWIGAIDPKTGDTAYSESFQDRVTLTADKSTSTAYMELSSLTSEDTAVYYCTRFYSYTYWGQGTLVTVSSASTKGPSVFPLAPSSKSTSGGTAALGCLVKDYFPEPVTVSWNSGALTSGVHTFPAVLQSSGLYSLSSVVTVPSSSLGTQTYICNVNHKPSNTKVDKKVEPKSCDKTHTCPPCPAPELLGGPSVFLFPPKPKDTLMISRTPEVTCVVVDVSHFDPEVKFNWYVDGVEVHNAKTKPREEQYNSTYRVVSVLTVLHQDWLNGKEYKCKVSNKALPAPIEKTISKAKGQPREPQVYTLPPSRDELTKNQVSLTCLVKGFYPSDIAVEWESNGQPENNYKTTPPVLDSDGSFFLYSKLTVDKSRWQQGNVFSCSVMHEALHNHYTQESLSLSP
light: B1 light
notes: as for B7
B9: GpH7-B3 variant A330_09D/GpL16-k0 (Ho Ab) (antibody, human IgG1, kappa)
heavy: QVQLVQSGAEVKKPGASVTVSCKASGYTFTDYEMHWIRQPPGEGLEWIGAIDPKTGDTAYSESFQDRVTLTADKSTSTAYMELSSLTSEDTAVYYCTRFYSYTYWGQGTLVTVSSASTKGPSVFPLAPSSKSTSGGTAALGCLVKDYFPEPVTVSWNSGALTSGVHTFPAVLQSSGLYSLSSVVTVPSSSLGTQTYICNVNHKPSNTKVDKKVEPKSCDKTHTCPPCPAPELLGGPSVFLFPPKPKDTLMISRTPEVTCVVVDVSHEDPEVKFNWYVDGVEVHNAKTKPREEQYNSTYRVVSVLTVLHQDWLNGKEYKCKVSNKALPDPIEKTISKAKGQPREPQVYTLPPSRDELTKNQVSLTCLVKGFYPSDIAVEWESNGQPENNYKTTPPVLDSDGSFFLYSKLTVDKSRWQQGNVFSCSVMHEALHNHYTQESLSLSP
light: B1 light
notes: as for B7
B10: GpH7-B3 variant A327_09D/GpL16-k0 (Ho Ab) (antibody, human IgG1, kappa)
heavy: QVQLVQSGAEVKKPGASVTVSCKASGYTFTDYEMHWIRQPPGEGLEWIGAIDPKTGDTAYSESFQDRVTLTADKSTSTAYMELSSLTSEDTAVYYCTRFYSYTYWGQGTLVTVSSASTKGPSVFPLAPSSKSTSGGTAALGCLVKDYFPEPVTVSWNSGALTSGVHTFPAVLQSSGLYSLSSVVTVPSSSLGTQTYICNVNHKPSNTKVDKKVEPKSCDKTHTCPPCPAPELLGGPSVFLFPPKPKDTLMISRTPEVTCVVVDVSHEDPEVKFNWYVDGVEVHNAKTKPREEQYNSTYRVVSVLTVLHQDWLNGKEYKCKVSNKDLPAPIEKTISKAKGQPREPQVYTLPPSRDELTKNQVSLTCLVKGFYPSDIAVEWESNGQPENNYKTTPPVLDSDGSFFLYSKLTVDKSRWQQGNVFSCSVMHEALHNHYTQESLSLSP
light: B1 light
notes: as for B7
B11: GpH7-B3 variant E269_06M/GpL16-k0 (Ho Ab) (antibody, human IgG1, kappa)
heavy: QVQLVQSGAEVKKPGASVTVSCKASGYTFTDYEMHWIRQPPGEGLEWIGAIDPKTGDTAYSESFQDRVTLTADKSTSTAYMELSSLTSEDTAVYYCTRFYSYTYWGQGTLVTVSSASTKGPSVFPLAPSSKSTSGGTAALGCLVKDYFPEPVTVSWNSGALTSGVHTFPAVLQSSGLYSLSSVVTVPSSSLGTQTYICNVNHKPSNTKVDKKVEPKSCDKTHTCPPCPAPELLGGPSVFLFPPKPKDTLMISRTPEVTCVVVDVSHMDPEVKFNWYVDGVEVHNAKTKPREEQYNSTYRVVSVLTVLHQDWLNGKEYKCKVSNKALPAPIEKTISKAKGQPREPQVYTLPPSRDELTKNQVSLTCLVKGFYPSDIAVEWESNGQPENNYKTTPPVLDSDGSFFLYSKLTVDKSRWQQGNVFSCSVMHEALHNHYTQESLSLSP
light: B1 light
notes: as for B7
B12: GpH7-B3 variant A330_08L/GpL16-k0 (Ho Ab) (antibody, human IgG1, kappa)
heavy: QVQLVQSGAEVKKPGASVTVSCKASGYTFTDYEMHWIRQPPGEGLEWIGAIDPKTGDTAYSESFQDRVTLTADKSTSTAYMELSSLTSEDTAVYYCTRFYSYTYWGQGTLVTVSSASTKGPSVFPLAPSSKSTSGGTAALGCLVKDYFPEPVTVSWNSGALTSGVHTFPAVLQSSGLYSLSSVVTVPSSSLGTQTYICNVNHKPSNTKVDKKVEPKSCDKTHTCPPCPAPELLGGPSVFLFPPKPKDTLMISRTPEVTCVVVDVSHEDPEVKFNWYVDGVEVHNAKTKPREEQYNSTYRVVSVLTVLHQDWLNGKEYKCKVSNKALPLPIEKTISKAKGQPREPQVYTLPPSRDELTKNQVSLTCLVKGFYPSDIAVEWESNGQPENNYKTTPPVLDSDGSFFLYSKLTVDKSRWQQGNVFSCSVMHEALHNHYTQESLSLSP
light: B1 light
notes: Ho Ab: alteration in both H chains; also called GpH7-B3-20-08L/GpL16-k0
B13: GpH7-B3 variant A330_14T/GpL16-k0 (Ho Ab) (antibody, human IgG1, kappa)
heavy: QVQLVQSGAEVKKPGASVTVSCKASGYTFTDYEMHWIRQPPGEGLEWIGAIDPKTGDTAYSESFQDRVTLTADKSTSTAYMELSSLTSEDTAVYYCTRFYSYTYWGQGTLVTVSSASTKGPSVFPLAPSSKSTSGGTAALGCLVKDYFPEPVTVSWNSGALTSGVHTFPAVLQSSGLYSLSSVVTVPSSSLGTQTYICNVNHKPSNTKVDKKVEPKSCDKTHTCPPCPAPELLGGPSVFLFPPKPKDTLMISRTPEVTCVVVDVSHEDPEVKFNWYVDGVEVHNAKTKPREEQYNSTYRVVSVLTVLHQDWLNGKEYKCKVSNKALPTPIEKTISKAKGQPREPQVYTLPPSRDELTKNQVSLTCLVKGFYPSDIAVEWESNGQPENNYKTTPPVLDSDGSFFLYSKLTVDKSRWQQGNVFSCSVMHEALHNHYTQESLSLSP
light: B1 light
notes: as for B7
B14: GpH7-A5/GpH7-B3 variant H268_04F/GpL16-k0 (antibody, human IgG1, kappa)
heavy 1: not shown
heavy 2: not shown
light: B1 light
notes: Heterodimerized IgG1, mutation in the GpH7-B3 chain only; also called He Ab
B15: GpH7-A5/GpH7-B3 variant A330_16H/GpL16-k0 (antibody, human IgG1, kappa)
heavy 1: not shown
heavy 2: not shown
light: B1 light
notes: as for B14
B16: GpH7-A5/GpH7-B3 variant A330_19Q/GpL16-k0 (antibody, human IgG1, kappa)
heavy 1: not shown
heavy 2: not shown
light: B1 light
notes: as for B14
B17: GpH7-A5/GpH7-B3 variant D270_10E/GpL16-k0 (antibody, human IgG1, kappa)
heavy 1: not shown
heavy 2: not shown
light: B1 light
notes: as for B14
B18: GpH7-A5/GpH7-B3 variant Q295_05P/GpL16-k0 (antibody, human IgG1, kappa)
heavy 1: not shown
heavy 2: not shown
light: B1 light
notes: as for B14
B19: GpH7-A5/GpH7-B3 variant S324_02A/GpL16-k0 (antibody, human IgG1, kappa)
heavy 1: not shown
heavy 2: not shown
light: B1 light
notes: as for B14
B20: GpH7-A5/GpH7-B3 variant K326_12R/GpL16-k0 (antibody, human IgG1, kappa)
heavy 1: not shown
heavy 2: not shown
light: B1 light
notes: as for B14
B21: GpH7-A5/GpH7-B3 variant S324_10E/GpL16-k0 (antibody, human IgG1, kappa)
heavy 1: not shown
heavy 2: not shown
light: B1 light
notes: as for B14
B22: GpH7-A5/GpH7-B3 variant I332_03V/GpL16-k0 (antibody, human IgG1, kappa)
heavy 1: not shown
heavy 2: not shown
light: B1 light
notes: as for B14
B23: GpH7-A5/GpH7-B3 variant Y300_08L/GpL16-k0 (antibody, human IgG1, kappa)
heavy 1: not shown
heavy 2: not shown
light: B1 light
notes: as for B14
B24: GpH7-A5/GpH7-B3 variant Y296_16H/GpL16-k0 (antibody, human IgG1, kappa)
heavy 1: not shown
heavy 2: not shown
light: B1 light
notes: as for B14
B25: GpH7-A5/GpH7-B3 variant I332_18N/GpL16-k0 (antibody, human IgG1, kappa)
heavy 1: not shown
heavy 2: not shown
light: B1 light
notes: as for B14
B26: GpH7-A5/GpH7-B3 variant A330_12R/GpL16-k0 (antibody, human IgG1, kappa)
heavy 1: not shown
heavy 2: not shown
light: B1 light
notes: as for B14
B27: GpH7-A5/GpH7-B3 variant S324_16H/GpL16-k0 (antibody, human IgG1, kappa)
heavy 1: not shown
heavy 2: not shown
light: B1 light
notes: as for B14
B28: GpH7-A5/GpH7-B3 variant S324_04F/GpL16-k0 (antibody, human IgG1, kappa)
heavy 1: not shown
heavy 2: not shown
light: B1 light
notes: as for B14
B29: GpH7-A5/GpH7-B3 variant S324_09D/GpL16-k0 (antibody, human IgG1, kappa)
heavy 1: not shown
heavy 2: not shown
light: B1 light
notes: as for B14
B30: GpH7-A5/GpH7-B3 variant S324_20W/GpL16-k0 (antibody, human IgG1, kappa)
heavy 1: not shown
heavy 2: not shown
light: B1 light
notes: as for B14
B31: GpH7-A5/GpH7-B3 variant Y296_09D/GpL16-k0 (antibody, human IgG1, kappa)
heavy 1: not shown
heavy 2: not shown
light: B1 light
notes: as for B14
B32: GpH7-A5/GpH7-B3 variant Y296_04F/GpL16-k0 (antibody, human IgG1, kappa)
heavy 1: not shown
heavy 2: not shown
light: B1 light
notes: as for B14
B33: GpH7-A5/GpH7-B3 variant Q295_07I/GpL16-k0 (antibody, human IgG1, kappa)
heavy 1: not shown
heavy 2: not shown
light: B1 light
notes: as for B14
B34: GpH7-A5/GpH7-B3 variant I332_19Q/GpL16-k0 (antibody, human IgG1, kappa)
heavy 1: not shown
heavy 2: not shown
light: B1 light
notes: as for B14
B35: GpH7-A5/GpH7-B3 variant Y300_06M/GpL16-k0 (antibody, human IgG1, kappa)
heavy 1: not shown
heavy 2: not shown
light: B1 light
notes: as for B14
B36: GpH7-A5/GpH7-B3 variant I332_13S/GpL16-k0 (antibody, human IgG1, kappa)
heavy 1: not shown
heavy 2: not shown
light: B1 light
notes: as for B14
B37: GpH7-A5/GpH7-B3 variant Y300_07I/GpL16-k0 (antibody, human IgG1, kappa)
heavy 1: not shown
heavy 2: not shown
light: B1 light
notes: as for B14
B38: GpH7-A5/GpH7-B3 variant I332_16H/GpL16-k0 (antibody, human IgG1, kappa)
heavy 1: not shown
heavy 2: not shown
light: B1 light
notes: as for B14
B39: GpH7-A5/GpH7-B3 variant Y296_18N/GpL16-k0 (antibody, human IgG1, kappa)
heavy 1: not shown
heavy 2: not shown
light: B1 light
notes: as for B14
B40: GpH7-A5/GpH7-B3 variant S324_15Y/GpL16-k0 (antibody, human IgG1, kappa)
heavy 1: not shown
heavy 2: not shown
light: B1 light
notes: as for B14
B41: GpH7-A5/GpH7-B3 variant A330_11K/GpL16-k0 (antibody, human IgG1, kappa)
heavy 1: not shown
heavy 2: not shown
light: B1 light
notes: as for B14

target: T3, FcγRIIIa extracellular domain with C-terminal His tag (human, UniProt P08637 17-208); assay: SPR relative binding; GpH7-A5/GpH7-B3/GpL16-k0 = 100
T3 construct: extracellular domain; also called FcgRIIIa; 3a; not shown: His tag at the C terminus
T3 sequence (P08637 17-208): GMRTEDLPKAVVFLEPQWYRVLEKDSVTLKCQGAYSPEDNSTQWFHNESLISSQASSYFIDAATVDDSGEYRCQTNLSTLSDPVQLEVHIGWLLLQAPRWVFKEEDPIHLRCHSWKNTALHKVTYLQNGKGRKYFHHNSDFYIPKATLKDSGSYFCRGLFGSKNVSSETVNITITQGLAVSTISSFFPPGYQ
Method in brief: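 First, antigen peptide is immobilized on a CM5 chip by amine coupling or, biotinylated, on an SA chip. Next, the antibody is captured and FcγR diluted in running buffer HBS-EP+ is passed over at 25° C. Finally, 10 mM glycine-HCl, pH 1.5 strips the antibody.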

FcγRIIIa BINDING ACTIVITY | Binder
168 % of control | B1
228 % of control | B2
97 % of control | B3
208 % of control | B4
201 % of control | B5
103 % of control | B6

target: T4, FcγRIa extracellular domain with C-terminal His tag (human, UniProt P12314 16-292); assay: SPR Biacore, antibody captured, FcγRIa analyte; vs GpH7-B3/GpL16-k0 = 100
T4 construct: extracellular domain; Expressed in FreeStyle293 cells; analyte in Biacore; also called FcgRI; FcgRIa
T4 sequence (P12314 16-292): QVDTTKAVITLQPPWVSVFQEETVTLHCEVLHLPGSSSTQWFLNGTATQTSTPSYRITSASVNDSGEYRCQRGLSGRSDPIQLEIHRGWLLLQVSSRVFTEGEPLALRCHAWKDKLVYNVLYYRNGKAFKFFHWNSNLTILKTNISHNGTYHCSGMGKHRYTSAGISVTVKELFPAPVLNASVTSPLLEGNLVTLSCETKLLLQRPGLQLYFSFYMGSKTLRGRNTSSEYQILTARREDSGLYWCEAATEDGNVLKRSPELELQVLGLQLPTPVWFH

Ho/Con_1a | Binder
102 relative (control = 100) | B7
102 relative (control = 100) | B8
108 relative (control = 100) | B9
102 relative (control = 100) | B10
101 relative (control = 100) | B11
106 relative (control = 100) | B12
105 relative (control = 100) | B13

target: T1, FcγRIIa H; assay: SPR (Biacore), antibody captured, FcγR as analyte; binding relative to GpH7-A5/GpH7-B3/GpL16-k0 = 100

He/Con_2aH | Binder
111 control = 100 | B14
101 control = 100 | B15
102 control = 100 | B16
102 control = 100 | B17
103 control = 100 | B18
102 control = 100 | B19
101 control = 100 | B20
103 control = 100 | B21
105 control = 100 | B22
108 control = 100 | B23
104 control = 100 | B24
110 control = 100 | B25
108 control = 100 | B26
102 control = 100 | B27
101 control = 100 | B28
106 control = 100 | B29
103 control = 100 | B30
104 control = 100 | B31
100 control = 100 | B32
102 control = 100 | B33
108 control = 100 | B34
105 control = 100 | B35
110 control = 100 | B36
108 control = 100 | B37
109 control = 100 | B38
104 control = 100 | B39
102 control = 100 | B40
109 control = 100 | B41

target: T2, FcγRIIb; assay: as above

He/Con_2b | Binder
89.6 control = 100 | B14
87.6 control = 100 | B15
90.8 control = 100 | B16
76.5 control = 100 | B17
67.5 control = 100 | B18
78.3 control = 100 | B19
89.2 control = 100 | B20
77.4 control = 100 | B21
80.7 control = 100 | B22
73.6 control = 100 | B23
92.2 control = 100 | B24
89.9 control = 100 | B25
84.8 control = 100 | B26
83.5 control = 100 | B27
89.1 control = 100 | B28
85.8 control = 100 | B29
87.5 control = 100 | B30
98.9 control = 100 | B31
99.2 control = 100 | B32
84.3 control = 100 | B33
94.3 control = 100 | B34
84.3 control = 100 | B35
98.4 control = 100 | B36
74.5 control = 100 | B37
93 control = 100 | B38
91.5 control = 100 | B39
88.2 control = 100 | B40
95 control = 100 | B41
